The target of assay [1] is human CD27 (human) (UniProt P26842). Briefly: flow cytometry on CHO-K1 cells transfected with CD27 (empty vector: + 5.32). In general terms: Flow cytometry measures light scatter and fluorescence of single cells or particles in a stream.
For assay [2] the target is unchanged. The assay can be described thus: flow cytometry on CHO-K1 cells transfected with CD27 (empty vector: GM FITC 212).
Assay [3] concerns the target human CD27 (A59T) (human) (UniProt P26842). Briefly: flow cytometry on CHO-K1 cells transfected with CD27 A59T (empty vector: + 5.32).
For assay [4] the target is unchanged. The assay can be described thus: flow cytometry on CHO-K1 cells transfected with CD27 A59T (empty vector: GM FITC 212).

Fc-mCD70, sequence (O55237 45-195): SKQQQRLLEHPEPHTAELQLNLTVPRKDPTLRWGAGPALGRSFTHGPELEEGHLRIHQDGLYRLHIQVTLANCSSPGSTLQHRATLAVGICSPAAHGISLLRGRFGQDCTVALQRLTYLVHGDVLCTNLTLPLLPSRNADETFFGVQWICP

Regarding “Fc-mCD70 (from UniProt O55237 45-195) (Fc fusion)”, the cells in the + gate came out at 58.9 in the assay with human CD27 (human) [1] and 52.5 in assay [3]. The results for the GM FITC (with human CD27 (human) [2]; in assay [4]) were 1280 and 1060, respectively.
